In patent US9625458:

Molecular target: Gly-Leu dipeptide
Experiment: fluorimetric titration of the fluorophore conjugate with ligand, fit to binding isotherm

B1: dipeptide BP K394C-NBD conjugate (receptor, E. coli, not shown: small tags and cut ends)
chain: MKTLVYCSEGSPEGFNPQLFTSGTTYDASSVPLYNRLVEFKIGTTEVIPGLAEKWEVSEDGKTYTFHLRKGVKWHDNKEFKPTRELNADDVVFSFDRQKNAQNPYHKVSGGSYEYFEGMGLPELISEVKKVDDNTVQFVLTRPEAPFLADLAMDFASILSKEYADAMMKAGTPEKLDLNPIGTGPFQLQQYQKDSRIRYKAFDGYWGTKPQIDTLVFSITPDASVRYAKLQKNECQVMPYPNPADIARMKQDKSINLMEMPGLNVGYLSYNVQKKPLDDVKVRQALTYAVNKDAIIKAVYQGAGVSAKNLIPPTMWGYNDDVQDYTYDPEKAKALLKEAGLEKGFSIDLWAMPVQRPYNPNARRMAEMIQADWAKVGVQAKIVTYEWGEYLKRACDGEHQTVMMGWTGDNGDPDNFFATLFSCAASEQGSNYSKWCYKPFEDLIQPARATDDHNKRVELYKQAQVVMHDQAPALIIAHSTVFEPVRKEVKGYVVDPLGKHHFENVSIE
modifications: NBD fluorophore conjugated to the thiol of Cys 394
  Kd: 12 nM

B2: dipeptide BP R141C-Acrylodan conjugate (receptor, E. coli, not shown: small tags and cut ends)
chain: MKTLVYCSEGSPEGFNPQLFTSGTTYDASSVPLYNRLVEFKIGTTEVIPGLAEKWEVSEDGKTYTFHLRKGVKWHDNKEFKPTRELNADDVVFSFDRQKNAQNPYHKVSGGSYEYFEGMGLPELISEVKKVDDNTVQFVLTCPEAPFLADLAMDFASILSKEYADAMMKAGTPEKLDLNPIGTGPFQLQQYQKDSRIRYKAFDGYWGTKPQIDTLVFSITPDASVRYAKLQKNECQVMPYPNPADIARMKQDKSINLMEMPGLNVGYLSYNVQKKPLDDVKVRQALTYAVNKDAIIKAVYQGAGVSAKNLIPPTMWGYNDDVQDYTYDPEKAKALLKEAGLEKGFSIDLWAMPVQRPYNPNARRMAEMIQADWAKVGVQAKIVTYEWGEYLKRAKDGEHQTVMMGWTGDNGDPDNFFATLFSCAASEQGSNYSKWCYKPFEDLIQPARATDDHNKRVELYKQAQVVMHDQAPALIIAHSTVFEPVRKEVKGYVVDPLGKHHFENVSIE
modifications: acrylodan fluorophore conjugated to the thiol of Cys 141
  Kd: 2300 nM

B3: dipeptide BP R141C-Fluorescein conjugate (receptor, E. coli, not shown: small tags and cut ends)
chain: MKTLVYCSEGSPEGFNPQLFTSGTTYDASSVPLYNRLVEFKIGTTEVIPGLAEKWEVSEDGKTYTFHLRKGVKWHDNKEFKPTRELNADDVVFSFDRQKNAQNPYHKVSGGSYEYFEGMGLPELISEVKKVDDNTVQFVLTCPEAPFLADLAMDFASILSKEYADAMMKAGTPEKLDLNPIGTGPFQLQQYQKDSRIRYKAFDGYWGTKPQIDTLVFSITPDASVRYAKLQKNECQVMPYPNPADIARMKQDKSINLMEMPGLNVGYLSYNVQKKPLDDVKVRQALTYAVNKDAIIKAVYQGAGVSAKNLIPPTMWGYNDDVQDYTYDPEKAKALLKEAGLEKGFSIDLWAMPVQRPYNPNARRMAEMIQADWAKVGVQAKIVTYEWGEYLKRAKDGEHQTVMMGWTGDNGDPDNFFATLFSCAASEQGSNYSKWCYKPFEDLIQPARATDDHNKRVELYKQAQVVMHDQAPALIIAHSTVFEPVRKEVKGYVVDPLGKHHFENVSIE
modifications: fluorescein (5-iodoacetamidofluorescein) conjugated to the thiol of Cys 141
  Kd: 38000 nM

B4: dipeptide BP S111C-JPW4039 conjugate (receptor, E. coli, not shown: small tags and cut ends)
chain: MKTLVYCSEGSPEGFNPQLFTSGTTYDASSVPLYNRLVEFKIGTTEVIPGLAEKWEVSEDGKTYTFHLRKGVKWHDNKEFKPTRELNADDVVFSFDRQKNAQNPYHKVSGGCYEYFEGMGLPELISEVKKVDDNTVQFVLTRPEAPFLADLAMDFASILSKEYADAMMKAGTPEKLDLNPIGTGPFQLQQYQKDSRIRYKAFDGYWGTKPQIDTLVFSITPDASVRYAKLQKNECQVMPYPNPADIARMKQDKSINLMEMPGLNVGYLSYNVQKKPLDDVKVRQALTYAVNKDAIIKAVYQGAGVSAKNLIPPTMWGYNDDVQDYTYDPEKAKALLKEAGLEKGFSIDLWAMPVQRPYNPNARRMAEMIQADWAKVGVQAKIVTYEWGEYLKRAKDGEHQTVMMGWTGDNGDPDNFFATLFSCAASEQGSNYSKWCYKPFEDLIQPARATDDHNKRVELYKQAQVVMHDQAPALIIAHSTVFEPVRKEVKGYVVDPLGKHHFENVSIE
modifications: JPW4039 fluorophore conjugated to the thiol of Cys 111
  Kd: 34000 nM

B5: dipeptide BP S111C-JPW4042 conjugate (receptor, E. coli, not shown: small tags and cut ends)
chain: MKTLVYCSEGSPEGFNPQLFTSGTTYDASSVPLYNRLVEFKIGTTEVIPGLAEKWEVSEDGKTYTFHLRKGVKWHDNKEFKPTRELNADDVVFSFDRQKNAQNPYHKVSGGCYEYFEGMGLPELISEVKKVDDNTVQFVLTRPEAPFLADLAMDFASILSKEYADAMMKAGTPEKLDLNPIGTGPFQLQQYQKDSRIRYKAFDGYWGTKPQIDTLVFSITPDASVRYAKLQKNECQVMPYPNPADIARMKQDKSINLMEMPGLNVGYLSYNVQKKPLDDVKVRQALTYAVNKDAIIKAVYQGAGVSAKNLIPPTMWGYNDDVQDYTYDPEKAKALLKEAGLEKGFSIDLWAMPVQRPYNPNARRMAEMIQADWAKVGVQAKIVTYEWGEYLKRAKDGEHQTVMMGWTGDNGDPDNFFATLFSCAASEQGSNYSKWCYKPFEDLIQPARATDDHNKRVELYKQAQVVMHDQAPALIIAHSTVFEPVRKEVKGYVVDPLGKHHFENVSIE
modifications: JPW4042 fluorophore conjugated to the thiol of Cys 111
  Kd: 15800 nM

B6: dipeptide BP S111C-Acrylodan conjugate (receptor, E. coli, not shown: small tags and cut ends)
chain: MKTLVYCSEGSPEGFNPQLFTSGTTYDASSVPLYNRLVEFKIGTTEVIPGLAEKWEVSEDGKTYTFHLRKGVKWHDNKEFKPTRELNADDVVFSFDRQKNAQNPYHKVSGGCYEYFEGMGLPELISEVKKVDDNTVQFVLTRPEAPFLADLAMDFASILSKEYADAMMKAGTPEKLDLNPIGTGPFQLQQYQKDSRIRYKAFDGYWGTKPQIDTLVFSITPDASVRYAKLQKNECQVMPYPNPADIARMKQDKSINLMEMPGLNVGYLSYNVQKKPLDDVKVRQALTYAVNKDAIIKAVYQGAGVSAKNLIPPTMWGYNDDVQDYTYDPEKAKALLKEAGLEKGFSIDLWAMPVQRPYNPNARRMAEMIQADWAKVGVQAKIVTYEWGEYLKRAKDGEHQTVMMGWTGDNGDPDNFFATLFSCAASEQGSNYSKWCYKPFEDLIQPARATDDHNKRVELYKQAQVVMHDQAPALIIAHSTVFEPVRKEVKGYVVDPLGKHHFENVSIE
modifications: acrylodan fluorophore conjugated to the thiol of Cys 111
  Kd: 4800 nM

B7: dipeptide BP S111C-Fluorescein conjugate (receptor, E. coli, not shown: small tags and cut ends)
chain: MKTLVYCSEGSPEGFNPQLFTSGTTYDASSVPLYNRLVEFKIGTTEVIPGLAEKWEVSEDGKTYTFHLRKGVKWHDNKEFKPTRELNADDVVFSFDRQKNAQNPYHKVSGGCYEYFEGMGLPELISEVKKVDDNTVQFVLTRPEAPFLADLAMDFASILSKEYADAMMKAGTPEKLDLNPIGTGPFQLQQYQKDSRIRYKAFDGYWGTKPQIDTLVFSITPDASVRYAKLQKNECQVMPYPNPADIARMKQDKSINLMEMPGLNVGYLSYNVQKKPLDDVKVRQALTYAVNKDAIIKAVYQGAGVSAKNLIPPTMWGYNDDVQDYTYDPEKAKALLKEAGLEKGFSIDLWAMPVQRPYNPNARRMAEMIQADWAKVGVQAKIVTYEWGEYLKRAKDGEHQTVMMGWTGDNGDPDNFFATLFSCAASEQGSNYSKWCYKPFEDLIQPARATDDHNKRVELYKQAQVVMHDQAPALIIAHSTVFEPVRKEVKGYVVDPLGKHHFENVSIE
modifications: fluorescein (5-iodoacetamidofluorescein) conjugated to the thiol of Cys 111
  Kd: 2600 nM

B8: dipeptide BP T44C-Fluorescein conjugate (receptor, E. coli, not shown: small tags and cut ends)
chain: MKTLVYCSEGSPEGFNPQLFTSGTTYDASSVPLYNRLVEFKIGTCEVIPGLAEKWEVSEDGKTYTFHLRKGVKWHDNKEFKPTRELNADDVVFSFDRQKNAQNPYHKVSGGSYEYFEGMGLPELISEVKKVDDNTVQFVLTRPEAPFLADLAMDFASILSKEYADAMMKAGTPEKLDLNPIGTGPFQLQQYQKDSRIRYKAFDGYWGTKPQIDTLVFSITPDASVRYAKLQKNECQVMPYPNPADIARMKQDKSINLMEMPGLNVGYLSYNVQKKPLDDVKVRQALTYAVNKDAIIKAVYQGAGVSAKNLIPPTMWGYNDDVQDYTYDPEKAKALLKEAGLEKGFSIDLWAMPVQRPYNPNARRMAEMIQADWAKVGVQAKIVTYEWGEYLKRAKDGEHQTVMMGWTGDNGDPDNFFATLFSCAASEQGSNYSKWCYKPFEDLIQPARATDDHNKRVELYKQAQVVMHDQAPALIIAHSTVFEPVRKEVKGYVVDPLGKHHFENVSIE
modifications: fluorescein (5-iodoacetamidofluorescein) conjugated to the thiol of Cys 44
  Kd: 640 nM

B9: dipeptide BP T44C-NBD conjugate (receptor, E. coli, not shown: small tags and cut ends)
chain: MKTLVYCSEGSPEGFNPQLFTSGTTYDASSVPLYNRLVEFKIGTCEVIPGLAEKWEVSEDGKTYTFHLRKGVKWHDNKEFKPTRELNADDVVFSFDRQKNAQNPYHKVSGGSYEYFEGMGLPELISEVKKVDDNTVQFVLTRPEAPFLADLAMDFASILSKEYADAMMKAGTPEKLDLNPIGTGPFQLQQYQKDSRIRYKAFDGYWGTKPQIDTLVFSITPDASVRYAKLQKNECQVMPYPNPADIARMKQDKSINLMEMPGLNVGYLSYNVQKKPLDDVKVRQALTYAVNKDAIIKAVYQGAGVSAKNLIPPTMWGYNDDVQDYTYDPEKAKALLKEAGLEKGFSIDLWAMPVQRPYNPNARRMAEMIQADWAKVGVQAKIVTYEWGEYLKRAKDGEHQTVMMGWTGDNGDPDNFFATLFSCAASEQGSNYSKWCYKPFEDLIQPARATDDHNKRVELYKQAQVVMHDQAPALIIAHSTVFEPVRKEVKGYVVDPLGKHHFENVSIE
modifications: NBD fluorophore conjugated to the thiol of Cys 44
  Kd: 6 nM

B10: dipeptide BP W315C-JPW4039 conjugate (receptor, E. coli, not shown: small tags and cut ends)
chain: MKTLVYCSEGSPEGFNPQLFTSGTTYDASSVPLYNRLVEFKIGTTEVIPGLAEKWEVSEDGKTYTFHLRKGVKWHDNKEFKPTRELNADDVVFSFDRQKNAQNPYHKVSGGSYEYFEGMGLPELISEVKKVDDNTVQFVLTRPEAPFLADLAMDFASILSKEYADAMMKAGTPEKLDLNPIGTGPFQLQQYQKDSRIRYKAFDGYWGTKPQIDTLVFSITPDASVRYAKLQKNECQVMPYPNPADIARMKQDKSINLMEMPGLNVGYLSYNVQKKPLDDVKVRQALTYAVNKDAIIKAVYQGAGVSAKNLIPPTMCGYNDDVQDYTYDPEKAKALLKEAGLEKGFSIDLWAMPVQRPYNPNARRMAEMIQADWAKVGVQAKIVTYEWGEYLKRAKDGEHQTVMMGWTGDNGDPDNFFATLFSCAASEQGSNYSKWCYKPFEDLIQPARATDDHNKRVELYKQAQVVMHDQAPALIIAHSTVFEPVRKEVKGYVVDPLGKHHFENVSIE
modifications: JPW4039 fluorophore conjugated to the thiol of Cys 315
  Kd: 1000 nM

B11: dipeptide BP D450C-JPW4039 conjugate (receptor, E. coli, not shown: small tags and cut ends)
chain: MKTLVYCSEGSPEGFNPQLFTSGTTYDASSVPLYNRLVEFKIGTTEVIPGLAEKWEVSEDGKTYTFHLRKGVKWHDNKEFKPTRELNADDVVFSFDRQKNAQNPYHKVSGGSYEYFEGMGLPELISEVKKVDDNTVQFVLTRPEAPFLADLAMDFASILSKEYADAMMKAGTPEKLDLNPIGTGPFQLQQYQKDSRIRYKAFDGYWGTKPQIDTLVFSITPDASVRYAKLQKNECQVMPYPNPADIARMKQDKSINLMEMPGLNVGYLSYNVQKKPLDDVKVRQALTYAVNKDAIIKAVYQGAGVSAKNLIPPTMWGYNDDVQDYTYDPEKAKALLKEAGLEKGFSIDLWAMPVQRPYNPNARRMAEMIQADWAKVGVQAKIVTYEWGEYLKRAKDGEHQTVMMGWTGDNGDPDNFFATLFSCAASEQGSNYSKWCYKPFEDLIQPARATCDHNKRVELYKQAQVVMHDQAPALIIAHSTVFEPVRKEVKGYVVDPLGKHHFENVSIE
modifications: JPW4039 fluorophore conjugated to the thiol of Cys 450
  Kd: 910 nM
